The target of the experiment is FGF receptor/BKL complex. Put plainly: FGF receptor potency in an Erk phosphorylation assay in HEK293 overexpressing human BKL. It counts as cell-based. To be noted: HEK293/BKL cells, pERK after 12 minutes. The protocol: In order to test the binding of the FGF21 derivatives to albumin, the assay was performed in the absence of serum albumin as well as in the presence of human serum albumin (HSA) (0.1% final assay concentration). An increase in EC50 value (decrease in potency) in the presence of serum albumin for FGF21 derivatives would indicate binding to serum albumin and represents a method to predict a protracted pharmacokinetic profile of the test substance in animal models. MetFGF21 (SEQ ID NO:2) is included for reference.
Chain of FGF receptor/BKL complex (Q86Z14 whole entry, one chain of several): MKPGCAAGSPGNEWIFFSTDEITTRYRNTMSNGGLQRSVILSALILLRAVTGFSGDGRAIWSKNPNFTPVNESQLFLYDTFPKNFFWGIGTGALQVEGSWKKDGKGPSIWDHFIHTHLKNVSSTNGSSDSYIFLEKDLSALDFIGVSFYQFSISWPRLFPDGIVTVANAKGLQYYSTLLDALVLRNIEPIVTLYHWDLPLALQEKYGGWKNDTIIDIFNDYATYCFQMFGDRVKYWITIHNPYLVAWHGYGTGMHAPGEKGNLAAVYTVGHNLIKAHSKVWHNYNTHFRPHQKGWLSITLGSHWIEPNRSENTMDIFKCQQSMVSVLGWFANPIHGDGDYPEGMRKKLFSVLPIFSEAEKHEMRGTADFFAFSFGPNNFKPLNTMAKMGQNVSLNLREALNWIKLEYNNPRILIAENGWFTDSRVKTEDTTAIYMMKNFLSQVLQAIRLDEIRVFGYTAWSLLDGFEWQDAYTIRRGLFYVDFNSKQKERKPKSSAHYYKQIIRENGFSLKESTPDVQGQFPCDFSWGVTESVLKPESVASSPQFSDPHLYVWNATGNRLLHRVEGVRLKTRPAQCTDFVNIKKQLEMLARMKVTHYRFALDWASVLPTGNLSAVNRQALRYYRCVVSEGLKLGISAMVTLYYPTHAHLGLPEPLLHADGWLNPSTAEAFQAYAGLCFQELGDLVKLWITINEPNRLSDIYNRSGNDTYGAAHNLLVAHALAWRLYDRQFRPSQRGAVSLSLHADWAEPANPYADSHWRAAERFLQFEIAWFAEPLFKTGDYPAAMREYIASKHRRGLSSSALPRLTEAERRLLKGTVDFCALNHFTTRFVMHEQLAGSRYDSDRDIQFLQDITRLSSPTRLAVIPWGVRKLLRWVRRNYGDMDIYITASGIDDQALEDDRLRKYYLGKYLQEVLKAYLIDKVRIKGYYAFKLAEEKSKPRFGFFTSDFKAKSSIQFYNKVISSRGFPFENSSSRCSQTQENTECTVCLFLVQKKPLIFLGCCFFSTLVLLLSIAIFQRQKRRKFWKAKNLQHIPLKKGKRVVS
HEK293 cells endogenously express several FGF receptors, including FGFR1c, FGFR3c and FGFR4. These cells are unresponsive to FGF21 until transfected with the co-receptor beta-klotho (BKL). Activation of the FGF receptor/BKL complex leads to activation of the MAPK/ERK signalling pathway and phosphorylation of ERK. The level of phosphorylated ERK (pERK) at a given time point increases with increasing concentrations of FGF21. As described below the level of pERK is measured after 12 minutes of stimulation with a range of FGF21 analogue concentrations.
The HEK293/beta-klotho cells are seeded with 30.000 cells/well in 96 well plates in DMEM (BioWhittaker #BE12-604F/U1), supplemented with 10% FCS (Gibco #16140-071), 1% penicillin/streptomycin (Gibco #15140), 100 µg/ml Hygromycin B, (Calbiochem, # 400052). Two days later and 2 hours before addition of compound the cell medium is exchanged with 100 ∞l basal medium (DMEM (BioWhittaker #BE12-604F/U1)). The FGF21 analogues are diluted in assay medium (DMEM (BioWhittaker #BE12-604F/U1) supplemented with 0.02% Tween20), warmed to 37° C., added to the cells (100 μl) and incubated at 37° C. for 12 minutes. The FGF21 derivatives were also tested in the presence of 0.1% HSA (Sigma—A1887). All medium is quickly removed and 50 μl lysis buffer is added pr. well. The plate is shaken for 5 minutes and the lysate is ready for measurement of pERK. pERK is measured in 384 well plates with the AlphaScreen SureFire kit (PerkinElmer #TGRES10K). This kit is based on ERK and pERK specific antibodies coupled to donor and acceptor beads. The presence of pERK will bring acceptor and donor beads in close proximity and a signal is generated that is read on EnVision. The data are analysed using GraphPad Prism and the potency of the FGF21 proteins is described as absolute EC50 value.

Where [1] appears, read: presence of 0.1% HSA, read-out: EC50 (0.1% HSA).

This is an account of results in patent US20170182124A1, “FGF21 Derivatives and Uses Thereof” (Novo Nordisk A/S, priority 2014, published 2017).

Like-named read-outs stand apart in the source and are kept apart here.

B1: 16-[[(1S)-4-[2-[2-[2-[2-[2-[2-(2-acetamidoethylamino)-2-oxo-ethoxy]ethoxy]ethylamino]-2-oxo-ethoxy]ethoxy]ethylamino]-1-carboxy-4-oxo-butyl]amino]-16-oxo-hexadecanoic … (protein)
chain: HPIPDSSPLLQFGGQVRQRYLYTDDAQQTEAHLEIREDGTVGGAADQSPESLLQLKALKPGVIQILGVKTSRFLCQRPDGALYGSLHFDPEACSFRELLLEDGYNVYQSEAHGLPLHLPGQKSPHRDPAPRGPARFLPLPGLPPALPEPPGILAPQPPDVGSSDPLSLVGPSQCRSPSYAS
Consider B1, for which the EC50 (as a rule, the concentration at which the effect is half-maximal) runs as follows: (absence of HSA, read-out: EC50) 2 nM; under setting [1], 4 nM.

B2: 12-[[(1S)-4-[2-[2-[2-[2-[2-[2-[[(1S)-5-acetamido-1-carboxy-pentyl]amino]-2-oxo-ethoxy]ethoxy]ethylamino]-2-oxo-ethoxy]ethoxy]ethylamino]-1-carboxy-4-oxo-butyl]amino]-12-oxo-dodecanoic … (protein)
chain: HPIPDSSPLLQFGGQVRQRYLYTDDAQQTEAHLEIREDGTVGGAADQSPESLLQLKALKPGVIQILGVKTSRFLCQRPDGALYGSLHFDPEACSFRELLLEDGYNVYQSEAHGLPLHLPGQKSPHRDPAPRGPARFLPLPGLPPALPEPPGILAPQPPDVGSSDPLSLVGPSQGRSPSYCS
As for B2, the concentration for a half-maximal effect (EC50) was 8.4 nM (absence of HSA, read-out: EC50) and 3.4 nM under setting [1].

B3: (2S)-6-acetamido-2-[[2-[2-[2-[[2-[2-[2-[[(4S)-4-carboxy-4-(16-sulfohexadecanoylamino)butanoyl]amino]ethoxy]ethoxy]acetyl]amino]ethoxy]ethoxy]acetyl]amino]hexadecanoic … (protein)
chain: HPIPDSSPLLQFGGQVRQRYLYTDDAQQTEAHLEIREDGTVGGAADQSPESLLQLKALKPGVIQILGVKTSRFLCQRPDGALYGSLHFDPEACSFRELLLEDGYNVYQSEAHGLPLHLPGQKSPHRDPAPRGPARFLPLPGLPPALPEPPGILAPQPPDVGSSDPLSLVGPSQGRSPSYCS
For B3, the EC50 was determined as 4.2 nM (absence of HSA, read-out: EC50) and 7.1 nM under setting [1].

B4: 20-[[(1S)-4-[[(1S)-4-[2-[2-[2-[2-[2-[2-[[(1S)-5-acetamido-1-carboxy-pentyl]amino]-2-oxo-ethoxy]ethoxy]ethylamino]-2-oxo-ethoxy]ethoxy]ethylamino]-1-carboxy-4-oxo-butyl]amino]-1-carboxy-4-oxo-butyl]ami … (protein)
chain: HPIPDSSPLLQFGGQVRQRYLYTDDAQQTEAHLEIREDGTVGGAADQSPESLLQLKALKPGVIQILGVKTSRFLCQRPDGALYGSLHFDPEACSFRELLLEDGYNVYQSEAHGLPLHLPGQKSPHRDPAPRGPARFLPLPGLPPALPEPPGILAPQPPDVGSSDPLSLVGPSQGRSPSYCS
On to B4, for which the EC50 is, setting by setting: (absence of HSA, read-out: EC50) 10.3 nM; under setting [1], 65.5 nM.

B5: 20-[[4-[[(1S)-4-[2-[2-[2-[2-[2-[2-[[(1S)-5-[(2-acetamido]-1-carboxy-pentyl]amino]-2-oxo-ethoxy]ethoxy]ethylamino]-2-oxo-ethoxy]ethoxy]ethylamino]-1-carboxy-4-oxo-butyl]carbamoyl]cyclohexyl]methylamino … (protein)
chain: HPIPDSSPLLQFGGQVRQRYLYTDDAQQTEAHLEIREDGTVGGAADQSPESLLQLKALKPGVIQILGVKTSRFLCQRPDGALYGSLHFDPEACSFRELLLEDGYNVYQSEAHGLPLHLPGQKSPHRDPAPRGPARFLPLPGLPPALPEPPGILAPQPPDVGSSDPLSLVGPSQGRSPSYCS
As to B5, the EC50 (absence of HSA, read-out: EC50) was 4 nM.

B6: S{Beta-175}-[2-[2-[[2-[2-[2-[[2-[2-[2-[[(4S)-4-carboxy-4-(15-carboxypentadecanoyl-amino)butanoyl]amino]ethoxy]ethoxy]acetyl]amino]ethoxy]ethoxy]acetyl]amino]-ethylamino]-2-oxoethyl]-Ala[Gln121,Leu168, … (protein)
chain: HPIPDSSPLLQFGGQVRQRYLYTDDAQQTEAHLEIREDGTVGGAADQSPESLLQLKALKPGVIQILGVKTSRFLCQRPDGALYGSLHFDPEACSFRELLLEDGYNVYQSEAHGLPLHLPGQKSPHRDPAPRGPARFLPLPGLPPALPEPPGILAPQPPDVGSSDPLSLVGPSQGCSPSYAS
As to B6, the EC50 runs as follows: (absence of HSA, read-out: EC50) 1 nM; under setting [1], 1 nM.

B7: S{Beta-169}-[2-[2-[[2-[2-[2-[[2-[2-[2-[[(4S)-4-carboxy-4-(15-carboxypentadecanoyl-amino)butanoyl]amino]ethoxy]ethoxy]acetyl]amino]ethoxy]ethoxy]acetyl]amino]-ethylamino]-2-oxoethyl]-Ala[Gln121,Leu168, … (protein)
chain: HPIPDSSPLLQFGGQVRQRYLYTDDAQQTEAHLEIREDGTVGGAADQSPESLLQLKALKPGVIQILGVKTSRFLCQRPDGALYGSLHFDPEACSFRELLLEDGYNVYQSEAHGLPLHLPGQKSPHRDPAPRGPARFLPLPGLPPALPEPPGILAPQPPDVGSSDPLSLCGPSQGRSPSYAS
Take B7: the EC50 worked out at 25 nM (absence of HSA, read-out: EC50) and 20 nM under setting [1].

B8: 4-[10-[[4-[2-[2-[2-[2-[2-[2-[[(1S)-5-acetamido-1-carboxy-pentyl]amino]-2-oxo-ethoxy]ethoxy]ethylamino]-2-oxo-ethoxy]ethoxy]ethylamino]-4-oxo-butyl]sulfonylamino]-10-oxo-decoxy]benzoic … (protein)
chain: HPIPDSSPLLQFGGQVRQRYLYTDDAQQTEAHLEIREDGTVGGAADQSPESLLQLKALKPGVIQILGVKTSRFLCQRPDGALYGSLHFDPEACSFRELLLEDGYNVYQSEAHGLPLHLPGQKSPHRDPAPRGPARFLPLPGLPPALPEPPGILAPQPPDVGSSDPLSLVGPSQGRSPSYCS
Consider B8, for which the EC50 was 3.2 nM (absence of HSA, read-out: EC50) and 4 nM under setting [1].

B9: 16-[[4-[[(1S)-4-[2-[2-[2-[2-[2-[2-(2-acetamidoethylamino)-2-oxo-ethoxy]ethoxy]ethylamino]-2-oxo-ethoxy]ethoxy]ethylamino]-1-carboxy-4-oxo-butyl]carbamoyl]cyclohexyl]methylamino]-16-oxo-hexadecanoic … (protein)
chain: HPIPDSSPLLQFGGQVRQRYLYTDDAQQTEAHLEIREDGTVGGAADQSPESLLQLKALKPGVIQILGVKTSRFLCQRPDGALYGSLHFDPEACSFRELLLEDGYNVYQSEAHGLPLHLPGQKSPHRDPAPRGPARFLPLPGLPPALPEPPGILAPQPPDVGSSDPLSLVGPSQGRSPSYCS
As to B9, the EC50 came to 3.5 nM (absence of HSA, read-out: EC50) and 3.2 nM under setting [1].

B10: 20-[[(1S)-4-[2-[2-[2-[2-[2-[2-[[(1S)-5-acetamido-1-carboxy-pentyl]amino]-2-oxo-ethoxy]ethoxy]ethylamino]-2-oxo-ethoxy]ethoxy]ethylamino]-1-carboxy-4-oxo-butyl]amino]-20-oxo-icosanoic … (protein)
chain: HPIPDSSPLLQFGGQVRQRYLYTDDAQQTEAHLEIREDGTVGGAADQSPESLLQLKALKPGVIQILGVKTSRFLCQRPDGALYGSLHFDPEACSFRELLLEDGYNVYQSEAHGLPLHLPGQKSPHRDPAPRGPARFLPLPGLPPALPEPPGILAPQPPDVGSSDPLSLVGPSQGRSPSYCS
On to B10, for which the EC50 is 6.1 nM (absence of HSA, read-out: EC50) and 52.5 nM under setting [1].

B11: S{Beta-176}-[2-[2-[[2-[2-[2-[[2-[2-[2-[[(4S)-4-carboxy-4-(15-carboxypentadecanoyl-amino)butanoyl]amino]ethoxy]ethoxy]acetyl]amino]ethoxy]ethoxy]acetyl]amino]-ethylamino]-2-oxoethyl]-Ala[Gln121,Leu168, … (protein)
chain: HPIPDSSPLLQFGGQVRQRYLYTDDAQQTEAHLEIREDGTVGGAADQSPESLLQLKALKPGVIQILGVKTSRFLCQRPDGALYGSLHFDPEACSFRELLLEDGYNVYQSEAHGLPLHLPGQKSPHRDPAPRGPARFLPLPGLPPALPEPPGILAPQPPDVGSSDPLSLVGPSQGRCPSYAS
As for B11, the EC50 (absence of HSA, read-out: EC50) came to 214 nM and the EC50 under setting [1] came to 373 nM.
